Measurements taken from paper PMC9117659, “Phase transition and remodeling complex assembly are important for SS18-SSX oncogenic activity in synovial sarcomas” (Nature Communications, 2022).
One block for each binder: values may come before it.

Columns and labels:
Details in all cases: both partners purified
SNF11^(38-169) = target: T1, SNF11^(38-169) (S. cerevisiae, UniProt P38956 38-169); assay: AUC; sedimentation velocity, 4 °C, interference detection, 50 mM MES pH 6.0, 50 mM NaCl, 1 mM EDTA, 1 mM DTT; SEDFIT
T1 construct: Cloned into one of the two multiple cloning sites of pETDuet-1
T1 sequence (looked up): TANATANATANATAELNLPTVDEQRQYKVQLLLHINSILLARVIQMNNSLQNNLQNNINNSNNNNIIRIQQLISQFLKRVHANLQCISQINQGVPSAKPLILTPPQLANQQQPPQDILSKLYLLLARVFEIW

SS18^(14-101) = target: T2, SS18^(14-101) (human, UniProt Q15532 14-101); assay: as above
T2 construct: SS18, human, residues 14-101, includes the SNH domain; also called SS18 fragment aa 14-101 (includes the SNH domain); source: E. coli BL21(DE3) Codon Plus, purified
T2 sequence (Q15532 14-101): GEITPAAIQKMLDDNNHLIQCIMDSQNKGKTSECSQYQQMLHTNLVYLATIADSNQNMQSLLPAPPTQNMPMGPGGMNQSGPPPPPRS

[1] = target: T3, Human SS18 (residues 1-387), purified recombinant (human, UniProt Q15532-2 1-387); assay: SEC; purified human proteins or fragments run together on a size-exclusion column; coelution, fractions on SDS-PAGE
T3 construct: The MBP-his6 vector is told for the proteins studied in phase separation; also called SS18^(1-387); SS18-WT; source: E. coli BL21(DE3) Codon Plus, purified (Ni-NTA, SEC)
T3 sequence (Q15532 other isoform, or with tags, fused parts or gaps): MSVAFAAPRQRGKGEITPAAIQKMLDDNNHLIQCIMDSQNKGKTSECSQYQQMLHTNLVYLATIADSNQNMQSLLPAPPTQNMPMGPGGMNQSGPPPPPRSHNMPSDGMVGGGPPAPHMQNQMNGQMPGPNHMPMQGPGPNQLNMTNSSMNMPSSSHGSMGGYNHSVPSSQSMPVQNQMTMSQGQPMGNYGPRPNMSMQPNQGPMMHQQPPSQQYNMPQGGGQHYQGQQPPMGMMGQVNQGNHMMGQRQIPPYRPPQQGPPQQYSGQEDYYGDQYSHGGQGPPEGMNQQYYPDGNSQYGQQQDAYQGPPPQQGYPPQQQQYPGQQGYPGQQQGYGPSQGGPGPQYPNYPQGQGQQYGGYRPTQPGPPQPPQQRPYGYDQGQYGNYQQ

stoichiometry N (SNF11^(38-169)): 1
B1: SNF2^(248-308), 60-residue fragment including the QLQ domain of SNF2 (domain or fragment, S. cerevisiae, UniProt P22082 248-308, looked up)
chain: FTAEQSELLKAQITSLKCLVNRKPIPFEFQAVIQKSINHPPDFKRMLLSLSEFARRRQPTD
notes: Cloned into one of the two multiple cloning sites of pETDuet-1

stoichiometry N (SS18^(14-101)): 1
B2: BRG1^(172-213) (domain or fragment, human, UniProt P51532 172-213, looked up)
chain: FNQNQLHQLRAQIMAYKMLARGQPLPDHLQMAVQGKRPMPGM
notes: In the crystal it stood fused to SS18^(14-101) on one chain; source: E. coli BL21(DE3) Codon Plus, purified

binding result [1]: binds
B3: BRG1^(1-282), N-terminal 282-residue fragment of BRG1 (domain or fragment, human, UniProt P51532 1-282, looked up)
chain: MSTPDPPLGGTPRPGPSPGPGPSPGAMLGPSPGPSPGSAHSMMGPSPGPPSAGHPIPTQGPGGYPQDNMHQMHKPMESMHEKGMSDDPRYNQMKGMGMRSGGHAGMGPPPSPMDQHSQGYPSPLGGSEHASSPVPASGPSSGPQMSSGPGGAPLDGADPQALGQQNRGPTPFNQNQLHQLRAQIMAYKMLARGQPLPDHLQMAVQGKRPMPGMQQQMPTLPPPSVSATGPGPGPGPGPGPGPGPAPPNYSRPHGMGGPNMPPPGPSGVPPGMPGQPPGGPPK
notes: Cloned into a modified pET32a (Trx-his6, N-terminal); the methods describe PreScission cleavage of the Trx-his6 tag in general; Cy3-labelled only for imaging; source: E. coli BL21(DE3) Codon Plus, purified (Ni-NTA, SEC, ion exchange); not shown: Trx, N-terminal, cleaved; His6, N-terminal, cleaved
